Measurements as given in the supplement of paper PMC9112550, “Optimization of the antimicrobial peptide Bac7 by deep mutational scanning” (BMC Biology, 2022).

These sequences were tested on Escherichia coli TOP10 (assay: shrunken log2 fold change of peptide-encoding DNA abundance (4.5 h post-induction vs induction); higher = less antimicrobial activity (less host growth inhibition)). Settings: time post-induction: 4.5 h; library: site-saturation at positions 5, 18, 19, 20.
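Further: peptides expressed intracellularly from a pBAD plasmid library in pooled LB shake-flask culture, induced with 0.3% L-arabinose, DNA abundance read by NGS, three biological replicates, DESeq2 with apeglm shrinkage.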

| Sequence | shrunken log2 fold change |
| --- | --- |
| RRIRWRPPRLPRPRPRPRDGPRP | 1.12 |
| RRIRQRPPRLPRPRPRPRESPRP | 0.0584 |
| RRIRSRPPRLPRPRPRPMWQPRP | -0.175 |
| RRIRKRPPRLPRPRPRPWKRPRP | 0.024 |
| RRIRERPPRLPRPRPRPQHDPRP | -0.265 |
| RRIRARPPRLPRPRPRPVCQPRP | 0.58 |
| RRIRDRPPRLPRPRPRPVLAPRP | 0.805 |
| RRIRKRPPRLPRPRPRPSPMPRP | 0.132 |
| RRIRIRPPRLPRPRPRPCIGPRP | -0.632 |
| RRIRLRPPRLPRPRPRPSNCPRP | -0.581 |
| RRIRKRPPRLPRPRPRPPSGPRP | 1.1 |
| RRIRPRPPRLPRPRPRPNRGPRP | 0.0424 |
| RRIRVRPPRLPRPRPRPPNKPRP | -0.0216 |
| RRIRSRPPRLPRPRPRPYKIPRP | -0.846 |
| RRIRCRPPRLPRPRPRPHFNPRP | -0.589 |
| RRIRNRPPRLPRPRPRPNEAPRP | -0.00931 |
| RRIRVRPPRLPRPRPRPAPLPRP | 0.255 |
| RRIRGRPPRLPRPRPRPPLIPRP | 0.669 |
| RRIRGRPPRLPRPRPRPAKEPRP | 0.414 |
| RRIRERPPRLPRPRPRPFNPPRP | -0.442 |
| RRIRGRPPRLPRPRPRPGQQPRP | 0.0088 |
| RRIRTRPPRLPRPRPRPGVLPRP | 0.08 |
| RRIRNRPPRLPRPRPRPFLLPRP | -0.295 |
| RRIRRRPPRLPRPRPRPEDCPRP | -0.0482 |
| RRIRMRPPRLPRPRPRPGAMPRP | 0.609 |

| Sequence | shrunken log2 fold change |
| --- | --- |
| RRIRLRPPRLPRPRPRPKNAPRP | -0.238 |
| RRIRCRPPRLPRPRPRPCPHPRP | -0.235 |
| RRIRTRPPRLPRPRPRPNMKPRP | -0.526 |
| RRIRVRPPRLPRPRPRPKWTPRP | 0.0514 |
| RRIRRRPPRLPRPRPRPHWQPRP | 0.28 |
| RRIRWRPPRLPRPRPRPWGMPRP | -0.246 |
| RRIRHRPPRLPRPRPRPPGQPRP | 0.0303 |
| RRIRDRPPRLPRPRPRPAGGPRP | 1.11 |
| RRIRIRPPRLPRPRPRPCMYPRP | -0.573 |
| RRIRKRPPRLPRPRPRPSIVPRP | -0.059 |
| RRIRWRPPRLPRPRPRPYASPRP | -0.121 |
| RRIRFRPPRLPRPRPRPMSKPRP | -0.0951 |
| RRIRCRPPRLPRPRPRPYMSPRP | -0.366 |
| RRIRMRPPRLPRPRPRPTDEPRP | 0.116 |
| RRIRCRPPRLPRPRPRPADAPRP | 1.44 |
| RRIRPRPPRLPRPRPRPWTAPRP | -0.305 |
| RRIRQRPPRLPRPRPRPDRAPRP | 0.12 |
| RRIRSRPPRLPRPRPRPKKVPRP | -0.00648 |
| RRIRLRPPRLPRPRPRPEMWPRP | 0.204 |
| RRIRDRPPRLPRPRPRPIHNPRP | -0.06 |
| RRIRIRPPRLPRPRPRPMFCPRP | -0.345 |
| RRIRWRPPRLPRPRPRPHNMPRP | -0.623 |
| RRIRWRPPRLPRPRPRPMSDPRP | 0.0237 |
| RRIRCRPPRLPRPRPRPAKRPRP | 0.0702 |
| RRIRERPPRLPRPRPRPVDNPRP | -0.107 |

| Sequence | shrunken log2 fold change |
| --- | --- |
| RRIRSRPPRLPRPRPRPQCAPRP | 0.233 |
| RRIRKRPPRLPRPRPRPQWMPRP | -0.307 |
| RRIRDRPPRLPRPRPRPDLAPRP | 0.814 |
| RRIRYRPPRLPRPRPRPIDRPRP | -0.017 |
| RRIRCRPPRLPRPRPRPKQMPRP | 0.364 |
| RRIRLRPPRLPRPRPRPCIRPRP | -0.265 |
| RRIRMRPPRLPRPRPRPDPPPRP | 1.23 |
| RRIRFRPPRLPRPRPRPYWHPRP | -0.754 |
| RRIRSRPPRLPRPRPRPNNMPRP | -0.534 |
| RRIRCRPPRLPRPRPRPFRPPRP | -0.515 |
| RRIRVRPPRLPRPRPRPMEEPRP | 0.215 |
| RRIRIRPPRLPRPRPRPFFGPRP | -0.00653 |
| RRIRLRPPRLPRPRPRPVQFPRP | -0.38 |
| RRIRERPPRLPRPRPRPFRTPRP | -0.11 |
| RRIRVRPPRLPRPRPRPFGRPRP | 0.0302 |
| RRIRVRPPRLPRPRPRPTYCPRP | -0.327 |
| RRIRSRPPRLPRPRPRPMMPPRP | -0.0787 |
| RRIRKRPPRLPRPRPRPDDPPRP | 0.237 |
| RRIRTRPPRLPRPRPRPQCEPRP | -0.0143 |
| RRIRCRPPRLPRPRPRPLGAPRP | 0.444 |
| RRIRRRPPRLPRPRPRPKLFPRP | 0.37 |
| RRIRTRPPRLPRPRPRPAHLPRP | -0.000138 |
| RRIRFRPPRLPRPRPRPHIGPRP | -0.482 |
| RRIRNRPPRLPRPRPRPPKHPRP | 0.157 |
| RRIRGRPPRLPRPRPRPGMWPRP | 0.78 |

| Sequence | shrunken log2 fold change |
| --- | --- |
| RRIRERPPRLPRPRPRPGIHPRP | -0.502 |
| RRIRTRPPRLPRPRPRPFYIPRP | -0.57 |
| RRIRRRPPRLPRPRPRPLRGPRP | 0.732 |
| RRIRNRPPRLPRPRPRPRAWPRP | -0.054 |
| RRIRSRPPRLPRPRPRPYFTPRP | 1.09 |
| RRIRPRPPRLPRPRPRPHCYPRP | -0.2 |
| RRIRGRPPRLPRPRPRPWTQPRP | 0.236 |
| RRIRRRPPRLPRPRPRPMGMPRP | 0.747 |
| RRIRSRPPRLPRPRPRPELWPRP | 0.743 |
| RRIRCRPPRLPRPRPRPQCAPRP | 0.166 |
| RRIRYRPPRLPRPRPRPDVEPRP | -0.00174 |
| RRIRPRPPRLPRPRPRPNKPPRP | -0.00463 |
| RRIRFRPPRLPRPRPRPIYRPRP | -0.122 |
| RRIRSRPPRLPRPRPRPTRMPRP | 1.03 |
| RRIRVRPPRLPRPRPRPFGAPRP | 0.258 |
| RRIRGRPPRLPRPRPRPMCQPRP | 0.62 |
| RRIRIRPPRLPRPRPRPRFIPRP | -0.636 |
| RRIRNRPPRLPRPRPRPELKPRP | 0.00533 |
| RRIRLRPPRLPRPRPRPYPVPRP | -0.025 |
| RRIRTRPPRLPRPRPRPMSHPRP | -0.238 |
| RRIRFRPPRLPRPRPRPQAHPRP | -0.454 |
| RRIRARPPRLPRPRPRPILCPRP | 0.165 |
| RRIRKRPPRLPRPRPRPLTMPRP | 0.185 |
| RRIRHRPPRLPRPRPRPVQLPRP | -0.0712 |
| RRIRRRPPRLPRPRPRPMDFPRP | 0.195 |

| Sequence | shrunken log2 fold change |
| --- | --- |
| RRIRWRPPRLPRPRPRPPTAPRP | 0.876 |
| RRIRDRPPRLPRPRPRPVNSPRP | 0.0226 |
| RRIRERPPRLPRPRPRPYGEPRP | -0.0274 |
| RRIRRRPPRLPRPRPRPRTHPRP | 0.108 |
| RRIRSRPPRLPRPRPRPLRHPRP | 0.375 |
| RRIRGRPPRLPRPRPRPGSVPRP | 0.484 |
| RRIRCRPPRLPRPRPRPEQRPRP | 0.23 |
| RRIRWRPPRLPRPRPRPPQFPRP | -0.108 |
| RRIRYRPPRLPRPRPRPEQLPRP | -0.0122 |
| RRIRERPPRLPRPRPRPFNIPRP | -0.0814 |
| RRIRQRPPRLPRPRPRPLLYPRP | -0.382 |
| RRIRNRPPRLPRPRPRPIRNPRP | -0.422 |
| RRIRWRPPRLPRPRPRPKSPPRP | 0.819 |
| RRIRHRPPRLPRPRPRPLMVPRP | -0.474 |
| RRIRSRPPRLPRPRPRPEADPRP | 0.688 |
| RRIRPRPPRLPRPRPRPLPEPRP | 0.935 |
| RRIRIRPPRLPRPRPRPKMHPRP | -0.299 |
| RRIRLRPPRLPRPRPRPFDTPRP | -0.167 |
| RRIRRRPPRLPRPRPRPIVVPRP | 0.115 |
| RRIRERPPRLPRPRPRPYLGPRP | -0.12 |
| RRIRPRPPRLPRPRPRPEGYPRP | 0.128 |
| RRIRARPPRLPRPRPRPCIGPRP | 0.0942 |
| RRIRQRPPRLPRPRPRPPRYPRP | 0.606 |
| RRIRDRPPRLPRPRPRPSYFPRP | -0.255 |
| RRIRWRPPRLPRPRPRPDWYPRP | -0.268 |

| Sequence | shrunken log2 fold change |
| --- | --- |
| RRIRYRPPRLPRPRPRPFLAPRP | -0.649 |
| RRIRRRPPRLPRPRPRPSQGPRP | 0.0642 |
| RRIRDRPPRLPRPRPRPMIDPRP | 0.141 |
| RRIRQRPPRLPRPRPRPHYIPRP | -0.298 |
| RRIRVRPPRLPRPRPRPQIVPRP | -0.136 |
| RRIRSRPPRLPRPRPRPPWYPRP | -0.321 |
| RRIRMRPPRLPRPRPRPDWDPRP | 0.211 |
| RRIRCRPPRLPRPRPRPWSYPRP | -0.441 |
| RRIRNRPPRLPRPRPRPVWNPRP | -0.0723 |
| RRIRDRPPRLPRPRPRPPPCPRP | 0.443 |
| RRIRSRPPRLPRPRPRPDLTPRP | 0.0442 |
| RRIRVRPPRLPRPRPRPVYIPRP | -0.363 |
| RRIRARPPRLPRPRPRPRTAPRP | 0.844 |
| RRIRGRPPRLPRPRPRPMWEPRP | 1.3 |
| RRIRFRPPRLPRPRPRPFNAPRP | -0.415 |
| RRIRQRPPRLPRPRPRPRMAPRP | 0.0146 |
| RRIRIRPPRLPRPRPRPHHFPRP | -0.313 |
| RRIRIRPPRLPRPRPRPEMWPRP | 0.0226 |
| RRIRYRPPRLPRPRPRPINVPRP | -0.208 |
| RRIRGRPPRLPRPRPRPTQSPRP | 1.08 |
| RRIRPRPPRLPRPRPRPHAFPRP | 0.0176 |
| RRIRVRPPRLPRPRPRPDPQPRP | 0.52 |
| RRIRNRPPRLPRPRPRPENNPRP | -0.106 |
| RRIRFRPPRLPRPRPRPSEEPRP | -0.196 |
| RRIRFRPPRLPRPRPRPGFVPRP | 0.126 |
